This is an account of results in paper PMC1885668.

Residue numbers refer to the chain shown, from its start.

The target in series [1] is T1, TREX2BD (human, UniProt Q9BQ50 1-236, R163A;R165A;R167A).
T1 sequence: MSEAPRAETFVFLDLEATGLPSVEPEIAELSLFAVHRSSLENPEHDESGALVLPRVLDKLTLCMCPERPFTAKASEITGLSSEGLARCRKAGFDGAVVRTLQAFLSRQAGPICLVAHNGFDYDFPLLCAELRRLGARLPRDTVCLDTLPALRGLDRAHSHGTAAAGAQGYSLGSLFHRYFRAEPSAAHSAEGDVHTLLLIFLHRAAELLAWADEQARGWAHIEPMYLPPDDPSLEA
Kind of series: SPR. (In general: Surface plasmon resonance follows binding to a sensor surface in real time, without labels.)

Series [2] addresses T2, TREX2DD (human, UniProt Q9BQ50 1-236, E29A;K59A;D94A;R107A;E191A).
T2 sequence: T1 sequence with E29A, K59A, D94A, R107A, A163R, A165R, A167R, E191A
Kind of series: SPR.

Consider GTATGAGCTGCAGTTCCTCAGCAT (ssDNA) [Biotin-mTX1-322 (24-mer)], for which the binding result in series [1] and in series [2] was “no binding” throughout.
